Reference: US8273357B2, “Antigen-carbohydrate conjugates” (Massachusetts Institute of Technology, priority 2004, dated 2012)
“Also recorded” adds a separate entry of the source.

What was measured:
[1] = test system: OTII (CD4+) T cells in unfractionated splenocytes; experiment: Antigen presentation assay, unfractionated OTII splenocytes, [3H]thymidine T cell proliferation; assay type: cell-based, mouse
Description: FIG. 2B is a graph showing that oligosaccharide modification of OVA elicits stronger presentation to OTII T cells than unmodified OVA. Unfractionated OTII splenocytes (3×10^5/well) were incubated with graded doses of OVA or oligosaccharide-modified OVA for eighty-four hours with [^3H]thymidine (1 μCi) added for the last 12 hours. Thereafter [^3H]thymidine incorporation levels were measured and plotted. FIG. 2C is a graph showing that observed enhancements in antigen presentation of (OVA)-3-1 to T cells is carbohydrate dependent. Splenocytes were incubated with antigen as in (B)±(BSA)-3-1 (10 μg mL^−1). In cases where (OVA)-3-1 was added to OVA wells to assess the possibility of direct activation of T cells (see text), (OVA)-3-1 was present at 50 ng mL^−1; incubations were performed for seventy-two hours with [^3H]thymidine (1 μCi) added for the last 12 hours. FIG. 2D is a graph showing that the receptor mediated uptake of (OVA)-3-1 has a different binding profile than that observed for DC-SIGN. Unfractionated splenocytes were incubated with OVA or (OVA)-3-1±mBSA or Lewis^x-BSA (each at 100 μg mL^−1). Incubations were performed for seventy-two hours with [^3H]thymidine (1 μCi) added for the last twelve hours. All values reported are the mean of triplicate measurements.
The ability of these conjugates to enhance antigen uptake by dendritic cells was assessed in comparison to unmodified OVA by incubating graded doses of conjugate and OVA with unfractionated splenocytes (containing T cells, B cells, dendritic cells, macrophages) isolated from OTII (CD4^+) transgenic mice. The ability of dendritic cells to present antigenic peptides derived from targeted proteins was measured as a function of T cell proliferation in response to those presented peptides. T cell proliferation is quantified by [^3H]thymidine incorporation during cellular division.
Pooled inguinal lymph nodes were dissociated in 10% Fetal Bovine Serum RPMI (supplemented with 2 mM L-glutamine) and either mechanically dissociated between two glass slides or, to improve the overall cell yield, incubated in the presence of collagenase (Boehringer) and EDTA for 25 minutes at 37° C./5% CO2 to dissociate DC-T cell clusters. For antigen presentation assays with whole splenocytes, isolated spleens were injected with collagenase/EDTA, gently teased apart and incubated as described above. Splenocytes were cultured in 96-well round-bottom plates at a density of 3×10^5 cells/0.2 mL. In antigen presentation assays utilizing purified dendritic cells and T cells, dendritic cells were isolated from the spleens of C57BL/6 mice following collagenase/EDTA treatment by labeling the dendritic cells with commercially available magnetic microbeads linked to an anti-CD11c^+ antibody (Miltenyi Biotec, Bergisch Gladbach, Germany) (according to the Miltenyi Biotec protocol) and separating labeled Dendritic cells from non-dendritic cells by application of a magnetic field. Similarly, purified […] T cells were obtained from spleens of OTII transgenic mice using magnetic beads Dynal (Oslo, Norway). Purified dendritic cells and T cells were seeded onto 96-well plates round-bottom Plates at a 1:2 DC:T cell ratio unless stated otherwise in the Figures.

IL-4 = IL-4 ELISA during in vitro peptide restimulation of T cells from immunized mice; assay type: in vivo, mouse; settings: 24 h; lower limit of detection approximately 0.3 ng mL^−1
Description: FIGS. 8A and 8B are a series of dot plots (FIG. 8A) and a graph (FIG. 8B) showing that the oligosaccharide-mediated targeting of steady state dendritic cells leads to T cell tolerance. […] 2×10^7 OTII splenocytes were adoptively transferred into B6.Ly5.2/Cr recipients and then immunized by subcutaneous injection with PBS, OVA (200 ng), (OVA)-3-1 (200 ng), (OVA)-3-1 (200 ng)+mBSA (50 μg) or OVA peptide (100 μg) in Incomplete Freund's Adjuvant. At 8 days after these initial immunizations, mice received an antigenic rechallenge of OVA peptide (100 μg) in Complete Freund's Adjuvant. On day ten mice were sacrificed and cells were isolated from the draining lymph node, total T cells were purified by negative selection and the number of OTII T cells were counted by FACS as described for FIG. 6. […] Purified T cells from each experimental group were seeded at 3×10^5 cells/well with purified […] dendritic cells (9×10^4/well) and were incubated for twenty-four hours±OVA peptide (100 μg mL^−1) with [^3H]thymidine (1 μCi) added for the last ten hours. […]
75-150 μL aliquots of supernatant were sampled from antigen presentation assays at 24, 48, and 72 hours. […] 25 μL of each supernatant were diluted 1:1 with PBS/1% BSA and analyzed in triplicate for IFN-γ, IL-10, and IL-4 using DuoSet ELISA reagents from R&D Systems. […]

B cells and macrophages = experiment: Antigen presentation with B cells and macrophages (non-dendritic cells) as antigen-presenting cells; assay type: cell-based, mouse; settings: in place of purified dendritic cells
Description: FIGS. 4A, 4B, 4C and 4D are graphs showing that CD11c^+ dendritic cells are the main antigen presenting cells presenting 3-1-targeted antigen. […] 1.5×10^4 Splenic CD11c^+ dendritic cells purified from C57BL/6 mice and 3.0×10^4 purified OTII T cells were incubated with OVA (starting concentration 300 μg mL^−1) or (OVA)-3-1 (starting concentration 25 μg mL^−1) in graded doses for eight-four hours with [^3H]thymidine (1 μCi) added for the last twelve hours. […] Purified CD11c^+ dendritic cells and OTII T cells were incubated with (OVA)-3-1 (25 μg mL^−1)±each potential inhibitor (100 μg mL^−1). T cell proliferation was determined as for FIG. 4A. […] CD11c^+ dendritic cells and OTII T cells were incubated with OVA or (OVA)-3-1±lipopolysaccharide ([…]). Also included are all ‘non-dendritic cells’ (macrophages and B cells) obtained during the purification of the dendritic cells. T cell proliferation was determined as described in FIG. 4A. […] Supernatants from cells described in FIG. 4C were collected at forty-eight and seventy-two hours and measured for IFN-γ by ELISA; the values presented are from the seventy-two hour time point. All measurements here were performed in triplicate. […]

## mBSA: BSA modified with approximately 25 mannose residues per protein molecule [reference compound]
[1]; OTII splenocytes, mBSA or Lewis^x-BSA each at 100 μg mL^−1
  inhibition of uptake and presentation of (OVA)-3-1 to OTII T cells: Neither mBSA nor Lewis^x-BSA significantly impair; also recorded: did not significantly effect presentation

B1: (OVA)-3-1: ovalbumin modified via SMCC with nonasaccharide 3-1, average of three saccharides per OVA (conjugate)
chain: GSIGAASMEFCFDVFKELKVHHANENIFYCPIAIMSALAMVYLGAKDSTRTQINKVVRFDKLPGFGDSIEAQCGTSVNVHSSLRDILNQITKPNDVYSFSLASRLYAEERYPILPEYLQCVKELYRGGLEPINFQTAADQARELINSWVESQTNGIIRNVLQPSSVDSQTAMVLVNAIVFKGLWEKAFKDEDTQAMPFRVTEQESKPVQMMYQIGLFRVASMASEKMKILELPFASGTMSMLVLLPDEVSGLEQLESIINFEKLTEWTSSNVMEERKIKVYLPRMKMEEKYNLTSVLMAMGITDVFSSSANLSGISSAESLKISQAVHAAHAEINEAGREVVGSAEAGVDAASVSEEFRADHPFLFCIKHIATNAVLFFGRCVSP
[1]; 0.05 μg mL^−1 (OVA)-3-1 added to graded doses of OVA
  T cell response curve of OVA plus (OVA)-3-1 versus OVA alone (direct activation of T cells): identical
[1]; OTII splenocytes, graded doses
  enhancement of antigen uptake and presentation to T cells (T cell proliferation) compared to unmodified OVA: greatest enhancement
IL-4
  IL-4 produced during peptide stimulation in vitro: not detected
B cells and macrophages
  T cell responses with B cells and macrophages as antigen-presenting cells: negligible

B2: ovalbumin (protein, UniProt P01012 2-386, looked up)
Ovalbumin: B1 chain
notes: model antigen, unmodified
IL-4
  IL-4 produced during peptide stimulation in vitro: no IL-4
